Data taken from PMC2367731 (Nucleic Acids Research, 2008).

B1: human Nap1 (nucleosome assembly protein 1), His6 tag removed (natural protein)
chain: MADIDNKEQSELDQDLDDVEEVEEEETGEETKLKARQLTVQMMQNPQILAALQERLDGLVETPTGYIESLPRVVKRRVNALKNLQVKCAQIEAKFYEEVHDLERKYAVLYQPLFDKRFEIINAIYEPTEEECEWKPDEEDEISEELKEKAKIEDEKKDEEKEDPKGIPEFWLTVFKNVDLLSDMVQEHDEPILKHLKDIKVKFSDAGQPMSFVLEFHFEPNEYFTNEVLTKTYRMRSEPDDSDPFSFDGPEIMGCTGCQIDWKKGKNVTLKTIKKKQKHKGRGTVRTVTKTVSNDSFFNFFAPPEVPESGDLDDDAEAILAADFEIGHFLRERIIPRSVLYFTGEAIEDDDDDYDEEGEEADEEGEEEGDEENDPDYDPKKDQNPAECKQQ
B2: His6-tagged human Nap1 (natural protein)
chain: B1 chain
B3: His6-tagged human Nap2 (natural protein)
chain: MADHSFSDGVPSDSVEAAKNASNTEKLTDQVMQNPRVLAALQERLDNVPHTPSSYIETLPKAVKRRINALKQLQVRCAHIEAKFYEEVHDLERKYAALYQPLFDKRREFITGDVEPTDAESEWHSENEEEEKLAGDMKSKVVVTEKAAATAEEPDPKGIPEFWFTIFRNVDMLSELVQEYDEPILKHLQDIKVKFSDPGQPMSFVLEFHFEPNDYFTNSVLTKTYKMKSEPDKADPFSFEGPEIVDCDGCTIDWKKGKNVTVKTIKKKQKHKGRGTVRTITKQVPNESFFNFFNPLKASGDGESLDEDSEFTLASDFEIGHFFRERIVPRAVLYFTGEAIEDDDNFEEGEEGEEEELEGDEEGEDEDDAEINPKV
B4: human Nap2, His6 tag removed (natural protein)
chain: B3 chain

Assays:
[1] = target: T1, H3.1/H4 complex (His6 tags removed) (human, UniProt P68431;P62805); test: native gel or EMSA
[2] = target: T2, H3t/H4 complex (His6 tags removed) (human, UniProt Q16695;P62805); test: native gel or EMSA
[3] = target: His6-tagged H3.1/H4 complex (human, UniProt P68431;P62805); test: pull-down
[4] = target: His6-tagged H3t/H4 complex (human, UniProt Q16695;P62805); test: pull-down
[5] = target: T1, H3.1/H4 complex (His6 tags removed); test: pull-down
[6] = target: T2, H3t/H4 complex (His6 tags removed); test: pull-down

Binder | binding result [1] | binding result [2] | binding result [3] | binding result [4] | binding result [5] | binding result [6]
B1 | binds | binds | binds | binds |  | 
B2 |  |  |  |  | binds | binds
B3 |  |  |  |  | binds | binds
B4 |  |  | binds | binds |  | 
